For this assay, the target named is MBP-PPM-1.D-10xHIS (C. elegans). In words: pull-down.

The results in this text go back to publication doi:10.1101/2021.08.02.453806.

B1: GST-CHK-2-3xFLAG (enzyme)
chain: MVRGTKRRRSSAEKPIVVVPVTRDDTMPVDEDLVVGESQCAASKPFAKLVGVRRGISSIDLADDHFVCGRGSDDAPTNFNFSQVAKDVGLYRFISKIQFSIDRDTETRRIYLHDHSRNGTLVNQEMIGKGLSRELMNGDLISIGIPALIIFVYESADADHHPEELTKKYHVTSHSLGKGGFGKVLLGYKKSDRSVVAIKQLNTQFSTRCSRAIAKTRDIRNEVEVMKKLSHPNIVAIYDWITVAKYSYMVIEYVGGGEFFSKVVDSKYNRMGLGESLGKYFAFQLIDAILYLHSVGICHRDIKPENILCSDKAERCILKLTDFGMAKNSVNRMKTRCGTPSYNAPEIVANEGVEYTPKVDIWSLGCVLFITFSGYPPFSEEYTDMTMDEQVLTGRLIFHAQWRRITVETQNMIKWMLTVEPSNRPSAVELMSTQWMKCADCRTAKQDILKSIKPISAAAPAALQTTQAGPVKKAKM
B1 showed a fold CHK-2 pulled down, normalized, relative to truncated PPM-1.D of 20 fold.
